{"source": "patent US5770430", "about": "“Cellular injury response element and uses thereof” (Research Development Foundation)", "binders": {"B1": {"name": "CIRE (GADD153 -74 to -35) (dsDNA)", "DNA 1": "AGGCTCCTGGGTCCCGCCCCCCAAAAGAGGGGACGGGCC", "DNA 2": "GGCCCGTCCCCTCTTTTGGGGGGCGGGACCCAGGAGCCT"}}, "target": "Sp1 (Homo sapiens, UniProt P08047 P08047:2-785)", "sequence (P08047 2-785, one chain of several)": "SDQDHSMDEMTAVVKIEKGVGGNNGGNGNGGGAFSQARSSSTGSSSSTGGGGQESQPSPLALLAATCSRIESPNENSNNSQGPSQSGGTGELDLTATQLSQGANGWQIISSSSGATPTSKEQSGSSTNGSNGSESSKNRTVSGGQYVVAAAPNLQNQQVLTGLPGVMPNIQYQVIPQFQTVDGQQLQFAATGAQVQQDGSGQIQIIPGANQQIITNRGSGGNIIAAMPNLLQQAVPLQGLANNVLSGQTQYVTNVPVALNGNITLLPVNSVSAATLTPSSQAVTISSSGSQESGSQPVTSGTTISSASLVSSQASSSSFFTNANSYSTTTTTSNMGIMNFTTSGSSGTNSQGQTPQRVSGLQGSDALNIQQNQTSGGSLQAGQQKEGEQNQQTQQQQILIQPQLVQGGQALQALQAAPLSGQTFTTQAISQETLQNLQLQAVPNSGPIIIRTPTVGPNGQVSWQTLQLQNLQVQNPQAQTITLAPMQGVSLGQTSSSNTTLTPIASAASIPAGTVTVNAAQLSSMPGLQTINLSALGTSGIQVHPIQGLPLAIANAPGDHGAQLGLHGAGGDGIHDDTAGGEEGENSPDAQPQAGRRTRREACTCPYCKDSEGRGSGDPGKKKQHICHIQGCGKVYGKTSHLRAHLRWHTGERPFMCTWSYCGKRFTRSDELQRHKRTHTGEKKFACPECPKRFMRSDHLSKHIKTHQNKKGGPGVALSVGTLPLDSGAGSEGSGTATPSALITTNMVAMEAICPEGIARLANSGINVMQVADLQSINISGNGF", "assay": "EMSA; poly dI/dC, Mg, Zn, room temperature", "details": "label: 32P", "experimental": "50,000 CPM of the cellular injury response element, 1 μg poly dI/dC, 10 μg nuclear extract or 2 footprinting units of human Sp1 protein (Promega, Madison, Wis.) were suspended in 12.5 mM HEPES, pH 7.8, 50 mM KCl, 6.25 mM MgCl_2, 5 μM ZnSO_4, 10% glycerol, and 0.05% Nonidet P-40 and incubated for 30 minutes at room temperature. The bands were separated on a 4% polyacrylamide/0.5 X TBE (45 mM Tris-borate, […]) gel, dried and were visualized using the Molecular Imager System (Bio-Rad, Hercules, Calif.). Supershift assays were performed as above with the addition of […] anti-Sp1 antibody (PEP2, Santa Cruz Biotechnology, Inc.) or non-specific rabbit antibody to the reaction mixture after the 30 minute incubation and incubating for an additional 30 minutes.\nNuclear extracts were incubated with ^32P-labeled cellular injury response element and separated on a 0.5X TBE/4% polyacrylamide gel. […] However, no shift was observed when nuclear extracts were incubated with the Sp 1-mutant cellular injury response element (labeled A in FIGS. 7 and 8; a non-specifically shifted band is labeled A in both FIGS. 7 and 8). Thus, the binding of the protein responsible for the gel shift of the cellular injury response element is dependent upon the presence of functional Sp1 site within the cellular injury response element."}
{"binder": "B1", "values": [{"measurement": "binding result", "result": "binds"}]}
